These results are taken from patent US20100191096A1, “PARAMAGNETIC BIOMOLECULE COMPLEXES AND USES THEREOF IN THE ASSESSMENT OF ORGAN FUNCTION” (priority 2007, published 2010).

Data set [1] concerns kidney (glomeruli, proximal tubular cells). The conditions noted are these: cited from earlier work.
In the next data set the test system is renal cortex. The experiment in a line: T1 weighted MRI of rat kidneys after i.v. contrast agent (contrast enhancement in renal cortex). The conditions noted are these: 20 minutes after 30 seconds in vivo i.v. infusion of 800 μl Ringer solution containing ~1 mg complex. As for the experimental part: The MRI hardware used to obtain the date in the figures described below is a Pharmascan 7T small animal MR scanner (from Bruker Biospin MRI GmbH, Ettlingen, Germany). The software is Paravision version 4 (from Bruker Biospin MR GmbH). Dynamic imaging was performed using a Flash sequence, with 2 mm slice thickness, 256×256 matrix, field of view (FOV) 6 cm, TR15.576 ms, TE3.7 ms, 250 evolution cycles, scan time 12 mins 27 sec. T1 weighted imaging was performed using a Flash T1 sequence, with 2 mm slice thickness, 256×256 matrix, FOV 6 cm, TR15.57 ms, TE3.7 ms, 10 averages, scan time 30 secs. T2 weighted imaging was performed using a Turbo RARE T2 sequence, with 2 mm slice thickness, 256×256 matrix, FOV 6 cm, TR4200 ms, TE36 ms, 3 averages, scan time 6 mins 47 secs.

In the case of aprotinin, the “time at which breakdown products can be detected in plasma after i.v. injection” value in data set [1] (labelled aprotinin, i.v. injection) is 20 min. Moreover, the “renal handling of native aprotinin (filtration, tubular uptake)” value in data set [1] (rat, in vivo) is “freely filtered in the glomeruli and quantitatively taken up into proximal tubular cells”.
For “Gd-DTPA-Lysozyme: Complex of chicken egg white lysozyme linked via DTPA chelator to Gadolinium, Example 2 standard protocol”, in the data set with renal cortex, the “contrast enhancement, T1 weighted MRI of coronal sections of rat kidneys (ex vivo)” value was “selectively enhanced the contrast in the renal cortex”.
